US10441636B2, “Method of diagnosis and treatment” (LA TROBE UNIVERSITY, priority 2012, dated 2019)
Entries after “also recorded” stand apart in the source; their conditions may differ.

B1: IFN-α1: Recombinant Interferon-α1, a type I IFN, injected intraperitoneally 3 times weekly at 10^5 IU/dose (protein, UniProt P01562 24-189, looked up)
Interferon alpha-1/13: CDLPETHSLDNRRTLMLLAQMSRISPSSCLMDRHDFGFPQEEFDGNQFQKAPAISVLHELIQQIFNLFTTKDSSAAWDEDLLDKFCTELYQQLNDLEACVMQEERVGETPLMNADSILAVKKYFRRITLYLTEKKYSPCAWEVVRAEIMRSLSLSTNLQERLRRKE

Legend:
4T1.2 tumours [1] = experiment: 4T1.2 tumour bearing mice treated with poly I:C (bioluminescence imaging, Q-PCR of tumour burden); assay type: in vivo
Method: Mice bearing 4T1.2 cells were treated with 25 ug poly I:C 3× weekly by tail vein injection beginning at day 3. (a) Bioluminescence imaging of 4T1.2 primary tumour burden prior to surgical resection (b) Bioluminescence imaging of metastatic burden in mice treated with vehicle or poly I:C (c) Q-PCR detection of 4T1.2 tumour burden in femur, spine and lung of mice at day 33.
These techniques have previously been described by Eckhardt and colleagues (Eckhardt 2005). Briefly, mice were inoculated with 10^5 cells into the 4th mammary fatpad of female 6-8 week old Balb/c mice. Tumour volumes were monitored by caliper measurement 3 times weekly. […] Metastatic burden in secondary tissues was detected by a Q-PCR based assay using a reporter sequence inserted into the genome of the 4T1.2 cells. Survival assays were conducted in the same way except at day 22 the mice were anaesthetized using either a combination of ketamine hydrochloride (1.2 m/g of mouse)/xylaxil hydrochloride (3 μg/g of mouse) or 2.5% aerosol isoflurane in 100% oxygen and the primary tumour was surgically removed and weighed. […] At time of sacrifice, all mice had evidence of bone and lung metastasis unless otherwise stated. Anti-CD8 (clone 53-6.7, produced in house) and the control antibody rat IgG2a (clone 2A3, produced in house) were injected intraperitoneally at 50 μg per dose on days −1, 0, 1, 4, 7 and subsequently every 7 d. Rabbit anti-asialo GM1 was purchased from Wako chemicals and injected intraperitoneally according to the manufacturer's instructions.

4T1.2 tumours [2] = experiment: Early treatment setting after primary tumour resection: poly I:C, doxorubicin or combination (bioluminescence imaging); assay type: in vivo, Balb/c mice; details: treatment from 2 days after resection for 2 weeks; 25 ug poly I:C every 2 days, 4 mg/kg doxorubicin every 4 days; bioluminescence (FIG. 21)
Method: 4T1.2 cells were inoculated into the 4th mammary gland of Balb/c mice. Primary tumours were resected when they reached 0.2 g and 2 days later treatment was started for a period of 2 weeks. Mice were treated with vehicle alone, 25 ug poly I:C every 2 days, 4 mg/kg doxorubicin every 4 days, or the combination of poly I:C and doxorubicin. Metastatic burden was visualised in all mice at a set time point using bioluminescence imaging.

4T1.2 tumours [3] = experiment: Mouse metastasis assay, 4T1.2 mammary tumours, IFN-α1 treatment; assay type: in vivo, Balb/c mice
Source text: (§1) FIG. 6: The effect of type I IFN treatment on metastasis. (a) Real-time RT-PCR analysis of 4T1.2 cells treated with […] recombinant IFN-α1. (n=3, * p<0.05, error bars are S.E.M.). (b) Proliferation of 4T1.2 cells treated with 1000 IU/mL of recombinant […]. (n=6, error bars are S.E.M.). (c) Primary tumour volume, n=15. (d) Q-PCR detection of metastatic 4T1.2 tumour burden in spine (at day 33 post tumour cell inoculation) of mice treated with IFNα1 or vehicle. (e) H&E stained sections of spines and femurs from 4T1.2 bearing mice treated with IFN-α1 or vehicle (Scale bar=50 T=Tumour). (f) Kaplan-Meier disease-free survival analysis of mice bearing 4T1.2 tumours that were subsequently resected. Mice were treated with 10^5 IU of recombinant IFN-α1 or saline from day 3. (n=15).
Female Balb/c mice (6-8 weeks old) were obtained from ARC (Perth, WA, Australia) or Walter and Eliza Hall Institute (Kew, Vic, Australia) breeding facilities. Female NSG mice were obtained from WEHI breeding facility under license from The Jackson Laboratory and Balb/c Ifnar1^−/− (Hwang et al. 1995, supra) were bred in-house. Recombinant IFN-α1 was injected intraperitoneally 3 times weekly at a dose of 10^5 IU/dose. All other mouse assays were performed using standard techniques. Metastasis was assessed using a previously described assay (Eckhardt et al. 2005, supra). Mouse investigations were performed with the approval of the Peter MacCallum Animal Ethics Experimentation Committee.
These techniques have previously been described by Eckhardt and colleagues (Eckhardt 2005). Briefly, mice were inoculated with 10^5 cells into the 4th mammary fatpad of female 6-8 week old Balb/c mice. Tumour volumes were monitored by caliper measurement 3 times weekly. […] Metastatic burden in secondary tissues was detected by a Q-PCR based assay using a reporter sequence inserted into the genome of the 4T1.2 cells. […]

4T1.2 cells [4] = experiment: Real-time RT-PCR of 4T1.2 cells treated with recombinant IFN-α1; assay type: cell-based, mouse; details: 4T1.2 cells in vitro, recombinant IFN-α1 1000 IU/mL, real-time RT-PCR (FIG. 6a)
Source text: as §1
66cl4 and 4T1 cell lines were kindly provided by Dr. Fred Miller (Karmanos Cancer Institute, Detroit, Mich.). Derivation of the 4T1.2 line has previously been described (Eckhardt et al. 2005, supra; Lelekakis et al. 1999, supra). Recombinant Interferon-α1 was used at a dose of 1000 IU/mL. Interferon-α receptor blocking antibody (MAR1-5A3) was used at a concentration of 10 μg/mL (Leinco, St Louis, Mo.). G-CSF ELISA was performed according to manufacturer's instructions (R&D Systems, Minneapolis, Minn., USA). Flow cytometry was performed using standard techniques. MDSCs were assessed using Ly6G (clone IA8) and CD11b (clone M1/70) specific antibodies (BD Pharmingen, Franklin Lakes, N.J., USA) at a dilution of 1:200. Flow Cytometry was performed using an LSR-II (BD Pharmingen, San Jose, Calif.). Real-time RT-PCR was performed using standard techniques. In vitro proliferation was assessed using a sulforhodamine B binding assay as previously described (Eckhardt et al. 2005, supra). […]
Expression level of each gene was calculated based on the cycle threshold (CT), set within the linear range of DNA amplification. Expression level (arbitrary units) was calculated as relative transcript abundance (RTA) by: RTA=10000/(2^ΔCT), where ΔCT=CT (gene of interest)−CT(GAPDH).

[5] = test system: 4T1.2 tumour bearing mice; experiment: Immune cell populations (flow cytometry) and G-CSF (ELISA) in 4T1.2 tumour bearing mice treated with IFN-α1; assay type: in vivo, Balb/c mice
Method: FIG. 18: Measurement of MDSC and G-CSF in blood of 4T1.2 tumour bearing mice treated with IFNα1. Mice were treated with IFN-al or saline control one day after 4T1.2 tumour cell inoculation into the mammary gland. Five days after tumour inoculation, MDSC percentage (a) and absolute numbers (b) were measured, along with G-CSF levels by ELISA (c).
FIG. 19: Changes in immune cells in the mammary gland, lung and bone. a) Mice were treated with IFN-α1 or saline control on day 1, 3 and 5 after 4T1.2 tumour cell inoculation into the mammary gland. Ten days after tumour inoculation MDSC, NK, CD4^+ and CD8^+ T cell percentages were measured in fatpad/primary tumour, lung and bone marrow. N=5. Difference between treatment groups was assessed using an unpaired T test and significance is indicated. b) Cells isolated from the mammary gland, lung and bone marrow of naïve Balb/c mice were stained for DX5, TCR, CD11b and CD27. Shown are representative profiles for CD11b and CD27 expression on gated DX5^+TCR. Percentage of CD11b^low/high and/or CD27^low/high are indicated.
66cl4 and 4T1 cell lines were kindly provided by Dr. Fred Miller (Karmanos Cancer Institute, Detroit, Mich.). Derivation of the 4T1.2 line has previously been described (Eckhardt et al. 2005, supra; Lelekakis et al. 1999, supra). Recombinant Interferon-α1 was used at a dose of 1000 IU/mL. Interferon-α receptor blocking antibody (MAR1-5A3) was used at a concentration of 10 μg/mL (Leinco, St Louis, Mo.). G-CSF ELISA was performed according to manufacturer's instructions (R&D Systems, Minneapolis, Minn., USA). Flow cytometry was performed using standard techniques. MDSCs were assessed using Ly6G (clone IA8) and CD11b (clone M1/70) specific antibodies (BD Pharmingen, Franklin Lakes, N.J., USA) at a dilution of 1:200. Flow Cytometry was performed using an LSR-II (BD Pharmingen, San Jose, Calif.). Real-time RT-PCR was performed using standard techniques. In vitro proliferation was assessed using a sulforhodamine B binding assay as previously described (Eckhardt et al. 2005, supra). Immunohistochemistry was performed using standard techniques, using α-mouse Irf7 (Zymed/Invitrogen, Carlsbad, Calif., USA) α-human Irf7 (BD Pharmingen, Franklin Lakes, N.J., USA) at a concentration of 5 μg/mL.

4T1.2 tumours [6] = experiment: Metastasis-free survival assay with primary tumour resection, IFN-α1 treatment; assay type: in vivo, Balb/c mice
Source text: as §1
Female Balb/c mice (6-8 weeks old) were obtained from ARC (Perth, WA, Australia) or Walter and Eliza Hall Institute (Kew, Vic, Australia) breeding facilities. […] Metastasis was assessed using a previously described assay (Eckhardt et al. 2005, supra). […]
These techniques have previously been described by Eckhardt and colleagues (Eckhardt 2005). […] Tumour volumes were monitored by caliper measurement 3 times weekly. […] Metastatic burden in secondary tissues was detected by a Q-PCR based assay using a reporter sequence inserted into the genome of the 4T1.2 cells. […]

4T1.2 cells [7] = experiment: In vitro proliferation of 4T1.2 cells (sulforhodamine B binding assay); assay type: cell-based, mouse; details: 1000 IU/mL recombinant IFN-α1 (FIG. 6b)
Source text: as §1
66cl4 and 4T1 cell lines were kindly provided by Dr. Fred Miller (Karmanos Cancer Institute, Detroit, Mich.). Derivation of the 4T1.2 line has previously been described (Eckhardt et al. 2005, supra; Lelekakis et al. 1999, supra). Recombinant Interferon-α1 was used at a dose of 1000 IU/mL. […] MDSCs were assessed using Ly6G (clone IA8) and CD11b (clone M1/70) specific antibodies (BD Pharmingen, Franklin Lakes, N.J., USA) at a dilution of 1:200. […] In vitro proliferation was assessed using a sulforhodamine B binding assay as previously described (Eckhardt et al. 2005, supra). […]

[8] = IFN-α1 on day 1, 3 and 5, measured ten days after tumour inoculation (FIG. 19a)

| Molecule | primary tumour growth (4T1.2 tumours [1]; 25 ug poly I:C 3x weekly by tail vein injection from day 3, bioluminescence imaging (FIG. 20a)) | metastatic burden in lung and bone (4T1.2 tumours [1]; 25 ug poly I:C 3x weekly, PCR detection of tumour cell markers at day 33 (FIG. 20c)) | metastasis to multiple organs (4T1.2 tumours [1]; 25 ug poly I:C 3x weekly, bioluminescence after primary tumour resection (FIG. 20b)) | metastasis at end point (4T1.2 tumours [2]) | metastasis to the spine and femur (4T1.2 tumours [3]; 10^5 IU/dose i.p. 3 times weekly, Q-PCR at day 33 and H&E, vs vehicle, P<0.007 (FIG. 6d, e)) | extent of metastasis to lung (4T1.2 tumours [3]; 10^5 IU/dose i.p. 3 times weekly, Q-PCR, endpoint day 33 (FIG. 17)) | primary tumour growth in vivo (4T1.2 tumours [3]; 10^5 IU/dose intraperitoneally 3 times weekly (FIG. 6c)) | expression of Irf7 (4T1.2 cells [4]) | expression of Irf9 (4T1.2 cells [4]) | expression of STAT1 (4T1.2 cells [4]) | G-CSF levels in the peripheral blood ([5]; 4T1.2 tumour bearing mice, IFN-α1 vs saline, ELISA (FIG. 18c)) | MDSC accumulation in the peripheral blood ([5]; 4T1.2 tumour bearing mice, IFN-α1 vs saline, five days after tumour inoculation (FIG. 18), listed as IFN) | CD11b+Ly6G+ MDSC in the bone marrow [5, 8] | NK cells at the primary site or in lungs [5, 8] | NK cells in the bone marrow [5, 8] | metastasis-free survival (4T1.2 tumours [6]; 10^5 IU recombinant IFN-α1 or saline for five weeks, primary tumour resection at 3 weeks (FIG. 6f)) | growth of primary tumours (4T1.2 tumours [6]; survival study, treatment for five weeks, primary tumour resection at 3 weeks) | 4T1.2 cell proliferation in vitro (4T1.2 cells [7]) |
| --- | --- | --- | --- | --- | --- | --- | --- | --- | --- | --- | --- | --- | --- | --- | --- | --- | --- | --- |
| poly I:C | did not alter | significant decrease | suppressed metastasis to multiple organs; also recorded: suppresses metastasis | did not significantly impact metastasis | – | – | – | – | – | – | – | – | – | – | – | – | – | – |
| COc1cccc2c1C(=O)c1c(O)c3c(c(O)c1C2=O)C[C@@](O)(C(=O)CO)C[C@@H]3O[C@H]1C[C@H](N)[C@H](O)[C@H](C)O1 [doxorubicin] | – | – | – | did not significantly impact metastasis | – | – | – | – | – | – | – | – | – | – | – | – | – | – |
| B1 | – | – | – | – | significantly reduced metastasis to the spine and femur to undetectable levels | not reduced | did not affect | increased expression | increased expression | increased expression | decreased | significantly decreased | significantly decreased | not observed | significantly increased | significant extension | no effect | did not affect |
